Data from the supplement of paper PMC9233669.
Variants at the floor of the assay were thinned out.

Columns and labels:
biotinyl-Phe-oxazolone = assay: self-aminoacylation, catalytic enhancement (BFO) (fold over background); higher = more active; k-Seq, kA / k0A0; sequences stand for … in GGGAAUGGAUCCACAUCUACGAAUUC…UUCACUGCAGACUUGACGAAGCUG
Summary of the method: (§1)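 Mutagenized RNA pools with a 21-nt variable region (0.43 μM) were reacted with each biotinyl-aminoacyl-oxazolone at 2–1250 μM for 90 minutes at room temperature, in 50 μL HEPES/NaCl/KCl/MgCl2/CaCl2 buffer containing 5% acetonitrile at pH 6.9–7.0. RNA captured on streptavidin was quantified by triplicate qPCR and by Illumina sequencing. The fraction reacted for each sequence was fit to a pseudo-first-order model with bootstrapping, and catalytic enhancement is the median kA divided by the uncatalyzed rate, taken as the low-activity peak of a bimodal Gaussian fit.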

biotinyl-Ile-oxazolone = assay: self-aminoacylation, catalytic enhancement (BIO) (fold over background); higher = more active; k-Seq, kA / k0A0; sequences stand for … in GGGAAUGGAUCCACAUCUACGAAUUC…UUCACUGCAGACUUGACGAAGCUG
Summary of the method: as §1

biotinyl-Trp-oxazolone = assay: self-aminoacylation, catalytic enhancement (BWO) (fold over background); higher = more active; k-Seq, kA / k0A0; sequences stand for … in GGGAAUGGAUCCACAUCUACGAAUUC…UUCACUGCAGACUUGACGAAGCUG
Summary of the method: as §1

biotinyl-Met-oxazolone = assay: self-aminoacylation, catalytic enhancement (BMO) (fold over background); higher = more active; k-Seq, kA / k0A0; sequences stand for … in GGGAAUGGAUCCACAUCUACGAAUUC…UUCACUGCAGACUUGACGAAGCUG
Summary of the method: as §1

biotinyl-Val-oxazolone = assay: self-aminoacylation, catalytic enhancement (BVO) (fold over background); higher = more active; k-Seq, kA / k0A0; sequences stand for … in GGGAAUGGAUCCACAUCUACGAAUUC…UUCACUGCAGACUUGACGAAGCUG
Summary of the method: as §1

biotinyl-Leu-oxazolone = assay: self-aminoacylation, catalytic enhancement (BLO) (fold over background); higher = more active; k-Seq, kA / k0A0; sequences stand for … in GGGAAUGGAUCCACAUCUACGAAUUC…UUCACUGCAGACUUGACGAAGCUG
Summary of the method: as §1

Sequence | self-aminoacylation (biotinyl-Phe-oxazolone) | self-aminoacylation (biotinyl-Ile-oxazolone) | self-aminoacylation (biotinyl-Trp-oxazolone) | self-aminoacylation (biotinyl-Met-oxazolone) | self-aminoacylation (biotinyl-Val-oxazolone) | self-aminoacylation (biotinyl-Leu-oxazolone)
GCACACAUCAAGCAAUCGGUC [Fam1B.1 aminoacylation ribozyme variant] | 3.12 | 2.01 | 2.22 |  |  | 
CCACAAUUCAAGCAAUCGCUC [Fam1B.1 aminoacylation ribozyme variant] |  | 2.51 |  | 2.18 | 2.12 | 2.38
AUUACCCUGGUCCUCGAGGGA [Fam2.1 aminoacylation ribozyme variant] |  |  | 2.37 |  | 2.15 | 
AUUACCCUGGUCAGCGAGCGA [Fam2.1 aminoacylation ribozyme variant] |  |  |  | 2.34 | 2.08 | 2.33
AAUUUUGCUAAAAGUCGCAAG [Fam3.1 aminoacylation ribozyme variant] | 2.77 | 2.1 | 3.11 |  |  | 2.38
CCCCACUGCAAGCAAUCGGUC [Fam1B.1 aminoacylation ribozyme variant] | 4.31 |  | 3.43 |  | 2.35 | 
CCCCACUUCAACCAAUCGGUC [Fam1B.1 aminoacylation ribozyme variant] | 101 | 2.37 | 53.6 |  |  | 2.99
AUUCCCCUGGUCAUCGAGUGG [Fam2.1 aminoacylation ribozyme variant] |  | 2.29 | 3.73 | 2.48 | 2.18 | 3.15
CCACACUUCAAGCAAUGGGUG [Fam1B.1 aminoacylation ribozyme variant] | 10.7 |  | 2.39 | 2.61 | 2.24 | 3
AUUACCCUUGUCAUCGUGUGA [Fam2.1 aminoacylation ribozyme variant] | 5.78 |  | 2.88 | 2.59 |  | 2.69
AUUCACCUAGGUCAACGAGUG [Fam2.2 aminoacylation ribozyme variant] | 5.07 | 2.07 |  | 2.6 |  | 3.76
AUUGCCCUGGUCAUCGUGUGA [Fam2.1 aminoacylation ribozyme variant] | 24 |  | 3.2 | 2.93 |  | 3.19
AUUCACGUAGGUCAUCGAGUG [Fam2.2 aminoacylation ribozyme variant] | 2.42 |  | 2.73 | 2.92 |  | 2.67
AAGCAUGCUAAUAGUCGCAAG [Fam3.1 aminoacylation ribozyme variant] | 6.71 | 2.36 | 2.61 | 2.61 |  | 
AAGUUAGCCAAUAGUCGCAAG [Fam3.1 aminoacylation ribozyme variant] | 2.56 | 2.02 | 2.28 | 2.22 |  | 2.35
AUUACCCUGAUCAGCGAGUGA [Fam2.1 aminoacylation ribozyme variant] | 3.1 |  | 4.93 | 2.71 | 2.3 | 2.74
AUUCAACUAGGACAUCGGGUG [Fam2.2 aminoacylation ribozyme variant] | 17 | 2.05 | 2.79 | 2.42 |  | 3.38
GAGCUUGCUAAUAGUCGCAAG [Fam3.1 aminoacylation ribozyme variant] | 4.81 |  | 2.4 | 2.03 | 2.02 | 
CCACACUUCAAGCAAACGGCC [Fam1B.1 aminoacylation ribozyme variant] |  | 2.6 | 3.66 |  | 3.77 | 3.75

Sequence | self-aminoacylation (biotinyl-Phe-oxazolone) | self-aminoacylation (biotinyl-Ile-oxazolone) | self-aminoacylation (biotinyl-Trp-oxazolone) | self-aminoacylation (biotinyl-Met-oxazolone) | self-aminoacylation (biotinyl-Val-oxazolone) | self-aminoacylation (biotinyl-Leu-oxazolone)
AUUACUCUGGCCAUCGAGUGA [Fam2.1 aminoacylation ribozyme variant] | 11.7 | 2.06 | 4.19 | 3.15 |  | 3.55
AAGUUCGCUAAUAGUCGCACG [Fam3.1 aminoacylation ribozyme variant] | 2.18 | 2.34 |  |  |  | 2.35
CAGUUUGCUAAUAGUCGCAAA [Fam3.1 aminoacylation ribozyme variant] | 4.61 | 2.35 |  |  |  | 
AUUCACGUAGGUCAUCGGGAG [Fam2.2 aminoacylation ribozyme variant] |  |  |  | 2.07 | 2.13 | 
CCACACUUAAAGCAAUCGGGC [Fam1B.1 aminoacylation ribozyme variant] |  | 2.19 |  |  |  | 
ACGUCUGCUAAUAGUCGCAAG [Fam3.1 aminoacylation ribozyme variant] | 32.2 | 2.02 | 8.61 | 2.12 |  | 
AACUUUGCUAAUACUCGCAAG [Fam3.1 aminoacylation ribozyme variant] | 2.02 | 2.19 |  |  |  | 
CCACACCUCAAGCAAUCGGUA [Fam1B.1 aminoacylation ribozyme variant] |  |  |  |  | 2.1 | 
CCACACUUCAGGCGAUCGGUC [Fam1B.1 aminoacylation ribozyme variant] | 4.75 |  |  | 2.1 | 2.42 | 
CCACACUUCUAGCAAUCGGCC [Fam1B.1 aminoacylation ribozyme variant] |  |  | 2.72 | 2.54 | 2.2 | 2.06
AAAUUUGCUAACAGUCGCAAG [Fam3.1 aminoacylation ribozyme variant] | 2.2 | 2.02 |  |  |  | 
AUUCACCUCGGUCAUCGGGUC [Fam2.2 aminoacylation ribozyme variant] | 9.78 |  |  |  | 2.01 | 2.04
AAAUCUGCUAAUAGUCGCAAG [Fam3.1 aminoacylation ribozyme variant] | 19.3 | 2.48 | 9.08 | 2.01 | 2.04 | 
AUUAUCCUCGUCAUCGAGUGA [Fam2.1 aminoacylation ribozyme variant] | 5.23 |  | 3 | 2.95 |  | 2.75
AUUCUCCUAGGUCAUCGGCUG [Fam2.2 aminoacylation ribozyme variant] | 9.44 | 2.19 |  | 2.49 | 2.51 | 2.54
GAGUUUCCUAAUAGUCGCAAG [Fam3.1 aminoacylation ribozyme variant] | 2.31 | 2.65 | 2.26 |  | 2.08 | 
AGUACCCUGGUCAUCGUGUGA [Fam2.1 aminoacylation ribozyme variant] | 16.3 |  | 3.88 | 3.07 | 2.06 | 3.43
AAGUUUGCCAAUAGUCGCAGG [Fam3.1 aminoacylation ribozyme variant] | 15.8 |  | 3.26 | 2.73 | 2.08 | 2.33
AUUACCCUGGACAUCAAGUGA [Fam2.1 aminoacylation ribozyme variant] | 5.55 |  | 2.98 | 2.33 |  | 2.29

Sequence | self-aminoacylation (biotinyl-Phe-oxazolone) | self-aminoacylation (biotinyl-Ile-oxazolone) | self-aminoacylation (biotinyl-Trp-oxazolone) | self-aminoacylation (biotinyl-Met-oxazolone) | self-aminoacylation (biotinyl-Val-oxazolone) | self-aminoacylation (biotinyl-Leu-oxazolone)
CCCCACGUCAAGCAAUCGGUC [Fam1B.1 aminoacylation ribozyme variant] | 5.6 |  | 2.49 |  | 2.4 | 
CCACACUUCAAGCAUUCGGUA [Fam1B.1 aminoacylation ribozyme variant] |  |  |  |  | 2.44 | 
AUUCACUUAGGUCAGCGGGUG [Fam2.2 aminoacylation ribozyme variant] | 15.6 | 2.5 | 2.75 | 2.99 |  | 3.88
CCACACUUCAAGCAGUCGGCC [Fam1B.1 aminoacylation ribozyme variant] | 4.85 |  |  | 2.22 | 2.84 | 2.47
AUUCACCUUGGUCAUCGGGGG [Fam2.2 aminoacylation ribozyme variant] | 13 |  | 2.28 | 2.04 | 2.04 | 2.84
AUUACCCUGGCCUUCGAGUGA [Fam2.1 aminoacylation ribozyme variant] | 17.9 |  | 5.17 | 3.21 | 2.53 | 4.36
CCACACUUCAAGCAAUUGGUG [Fam1B.1 aminoacylation ribozyme variant] | 5.72 | 2.28 | 2.84 | 3.03 |  | 3.62
AAUACCCUCGUCAUCGAGUGA [Fam2.1 aminoacylation ribozyme variant] | 3.81 | 2.08 | 3.7 | 2.53 |  | 3
AUUCACCUAGUUCAUAGGGUG [Fam2.2 aminoacylation ribozyme variant] | 15.4 |  | 3.14 | 3.63 |  | 3.8
CAGUCUGCUAAUAGUCGCAAG [Fam3.1 aminoacylation ribozyme variant] | 28.2 | 2.14 | 9.53 | 2.86 |  | 
AUUACCCUGGUCAACGAGUGU [Fam2.1 aminoacylation ribozyme variant] | 6.18 |  | 3.43 | 2.91 |  | 3
AUUCACCUAGGUCAUCGCGAG [Fam2.2 aminoacylation ribozyme variant] | 4.46 |  |  |  | 2.31 | 
AUUACCCUGGUCACCGAGUAA [Fam2.1 aminoacylation ribozyme variant] | 10.1 |  |  | 2.62 | 2.34 | 2.46
AUUACACUGGUCAUAGAGUGA [Fam2.1 aminoacylation ribozyme variant] | 8.72 |  | 3.92 | 3.15 | 2.13 | 3.62
AAGCUUGCUAAUAUUCGCAAG [Fam3.1 aminoacylation ribozyme variant] |  | 2.47 | 3.38 |  | 2.13 | 
CCACACUUCAAGCAUUCGGUU [Fam1B.1 aminoacylation ribozyme variant] | 7.27 | 2.29 |  | 2.33 | 2.64 | 2.35
AUUACCUUGGUCCUCGAGUGA [Fam2.1 aminoacylation ribozyme variant] | 17.8 |  | 4.39 | 3.05 | 2.11 | 3.95
GAGUUUGCUAAAAGUCGCAAG [Fam3.1 aminoacylation ribozyme variant] | 8.71 |  | 5.66 |  | 2.1 | 
